The results in this text go back to patent US7193044.

Non-standard residues stand in square brackets, D forms with d. No end group written: not given here. pS = N[C@@H](COP(=O)(O)O)C(=O)O

The assay has as its target Recombinant Bcl-XL tagged with the glutathione S-transferase (GST) moiety [GST: P08515]. Description: competition ELISA: peptide against immobilised BAK BH3 peptide for GST-Bcl-XL.

Sequence of Recombinant Bcl-XL tagged with the glutathione S-transferase (GST) moiety [GST: P08515] (Q07817 whole entry): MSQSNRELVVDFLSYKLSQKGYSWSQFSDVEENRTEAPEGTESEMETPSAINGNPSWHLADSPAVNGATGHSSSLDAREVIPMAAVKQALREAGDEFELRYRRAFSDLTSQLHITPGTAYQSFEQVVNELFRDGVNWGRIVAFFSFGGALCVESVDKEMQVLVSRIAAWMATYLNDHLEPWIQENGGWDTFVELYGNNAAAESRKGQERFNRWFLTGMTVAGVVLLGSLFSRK

On to AAQRYGRELRRM[pS]DEFEGSFKGLPRP [Synthetic BAD BH3 peptide (residues 143-168) phosphorylated on Ser155], for which the fold reduction of affinity against the unphosphorylated BAD BH3 peptide is over 100 fold.
